Measured values: publication doi:10.1101/2021.04.03.438258

Target: SARS-CoV-2 HexaPro S (SARS-CoV-2)
Test: cryo-EM structure

SARS-CoV-2 HexaPro S (domain or fragment)
stoichiometry N: 3
